Measured values published in US20030091584A1.
Several values for one entry are separate records, joined by “and”; a condition that tells them apart may be missing. Equal values may be shown once.

B1: A17d4 (monoclonal antibody) (antibody, V domains shown)
VH: QVTLRESGPALVKPTQTLTLTCTFSGFSLSTAGMSVGWIRQPPGKALEWLADIWWDGKKSYNPSLKDRLTISKDTSKNQVVLKVTNMDPADTATYYCARDMIFNFYFDVWGQGTTVTVSS
VL: DIQMTQSPSTLSASVGDRVTITCLPSSRVGYMHWYQQKPGKAPKLLIYDTMYQASGVPSRFSGSGSGTEFTLTISSLQPDDFATYYCFQFSGYPFTFGGGTKLEIK
B2: A1e9 (monoclonal antibody) (antibody, V domains shown)
VH: QVTLRESGPALVKPTQTLTLTCTFSGFSLSTPGMSVGWIRQPPGKALEWLADIWWDGKKHYNPSLKDRLTISKDTSKNQVVLKVTNMDPADTATYYCARDMIFNWYFDVWGQGTTVTVSS
VL: DIQMTQSPSTLSASVGDRVTITCSLSSRVGYMHWYQQKPGKAPKLLIYDTFKLSSGVPSRFSGSGSGTEFTLTISSLQPDDFATYYCFQGSGYPFTFGGGTKVEIK
B3: P11d4 (monoclonal antibody) (antibody, V domains shown)
VH: QVTLRESGPALVKPTQTLTLTCTFSGFSLSTPGMSVGWIRQPPGKALEWLADIWWDGKKHYNPSLKDRLTISKDTSKNQVVLKVTNMDPADTATYYCARDMIFNWYFDVWGQGTTVTVSS
VL: DIQMTQSPSTLSASVGDRVTITCSPSSRVGYMHWYQQKPGKAPKLLIYDTMRLASGVPSRFSGSGSGTEFTLTISSLQPDDFATYYCFQGSGYPFTFGGGTKVEIK
B4: A13c4 (monoclonal antibody) (antibody, V domains shown)
VH: QVTLRESGPALVKPTQTLTLTCTFSGFSLSTAGMSVGWIRQPPGKALEWLADIWWDGKKSYNPSLKDRLTISKDTSKNQVVLKVTNMDPADTATYYCARDMIFNFYFDVWGQGTTVTVSS
VL: DIQMTQSPSTLSASVGDRVTITCSLSSRVGYMHWYQQKPGKAPKLLIYDTMYQSSGVPSRFSGSGSGTEFTLTISSLQPDDFATYYCFQGSGYPFTFGGGTKVEIK
B5: A8c7 (monoclonal antibody) (antibody, V domains shown)
VH: QVTLRESGPALVKPTQTLTLTCTFSGFSLSTAGMSVGWIRQPPGKALEWLADIWWDDKKSYNPSLKDRLTISKDTSKNQVVLKVTNMDPADTATYYCARDMIFNWYFDVWGQGTTVTVSS
VL: DIQMTQSPSTLSASVGDRVTITCSASSRVGYMHWYQQKPGKAPKLLIYDTRYQSSGVPSRFSGSGSGTEFTLTISSLQPDDFATYYCFQGSGYPFTFGGGTKLEIK
B6: A12a6 (monoclonal antibody) (antibody, V domains shown)
VH: QVTLRESGPALVKPTQTLTLTCTFSGFSLSTAGMSVGWIRQPPGKALEWLADIWWDGKKDYNPSLKDRLTISKDTSKNQVVLKVTNMDPADTATYYCARDMIFNFYFDVWGQGTTVTVSS
VL: DIQMTQSPSTLSASVGDRVTITCSASSRVGYMHWYQQKPGKAPKLLIYDTFKLSSGVPSRFSGSGSGTEFTLTISSLQPDDFATYYCFQGSGYPFTFGGGTKVEIK
B7: P12f2 (monoclonal antibody) (antibody, V domains shown)
VH: QVTLRESGPALVKPTQTLTLTCTFSGFSLSTPGMSVGWIRQPPGKALEWLADIWWDDKKHYNPSLKDRLTISKDTSKNQVVLKVTNMDPADTATYYCARDMIFNFYFDVWGAGTTVTVSS
VL: DIQMTQSPSTLSASVGDRVTITCSLSSRVGYMHWYQQKPGKAPKLLIYDTFYLSSGVPSRFSGSGSGTEFTLTISSLQPDDFATYYCFQGSGYPFTFGGGTKVEIK
B8: P12f4 (monoclonal antibody) (antibody, V domains shown)
VH: QVTLRESGPALVKPTQTLTLTCTFSGFSLSTPGMSVGWIRQPPGKALEWLADIWWDGKKHYNPSLKDRLTISKDTSKNQVVLKVTNMDPADTATYYCARDMIFNFYFDVWGQGTTVTVSS
VL: DIQMTQSPSTLSASVGDRVTITCSLSSRVGYMHWYQQKPGKAPKLLIYDTRGLPSGVPSRFSGSGSGTEFTLTISSLQPDDFATYYCFQGSGYPFTFGGGTKVEIK
B9: AFFF (monoclonal antibody) (antibody, V domains shown)
VH: QVTLRESGPALVKPTQTLTLTCTFSGFSLSTAGMSVGWIRQPPGKALEWLADIWWDDKKDYNPSLKSRLTISKDTSKNQVVLKVTNMDPADTATYYCARSMITNFYFDVWGAGTTVTVSS
VL: DIQMTQSPSTLSASVGDRVTITCSASSSVGYMHWYQQKPGKAPKLLIYDTFKLASGVPSRFSGSGSGTEFTLTISSLQPDDFATYYCFQFSGYPFTFGGGTKLEIK
B10: L1-7E5 (Fab fragment) (Fab, V domains shown)
VH: QVTLRESGPALVKPTQTLTLTCTFSGFSLSTAGMSVGWIRQPPGKALEWLADIWWDDKKDYNPSLKSRLTISKDTSKNQVVLKVTNMDPADTATYYCARDMITNFYFDVWGAGTTVTVSS
VL: DIQMTQSPSTLSASVGDRVTITCSASSSVGYMHWYQQKPGKAPKLLIYDTFRLASGVPSRFSGSGSGTEFTLTISSLQPDDFATYYCFQGSGYPFTFGGGTKLEIK
B11: AFFF (Fab fragment) (Fab, V domains shown)
VH: QVTLRESGPALVKPTQTLTLTCTFSGFSLSTAGMSVGWIRQPPGKALEWLADIWWDDKKDYNPSLKSRLTISKDTSKNQVVLKVTNMDPADTATYYCARSMITNFYFDVWGAGTTVTVSS
VL: DIQMTQSPSTLSASVGDRVTITCSASSSVGYMHWYQQKPGKAPKLLIYDTFKLASGVPSRFSGSGSGTEFTLTISSLQPDDFATYYCFQFSGYPFTFGGGTKLEIK

biological target: Bac-F; assay: BIAcore, mAb vs Bac-F (1:1)

Point of comparison: B5, Kd 0.21 nM. Against it:
- B1 — 2.3-fold lower, 0.09 nM
- B2 — 1.6-fold higher, 0.33 nM
- B3 — 3-fold higher, 0.62 nM
- B4 — 1.6-fold lower, 0.13 nM
- B6 — 5.2-fold lower, 0.04 nM
- B7 — within 1.5-fold, 0.31 nM
- B8 — 1.9-fold lower, 0.11 nM

Point of comparison: B3, koff 0.000289 s⁻¹. Against it:
- B1 — 7.1-fold lower, 4.07e-05 s⁻¹
- B2 — 2-fold lower, 0.000143 s⁻¹
- B4 — 7.3-fold lower, 3.96e-05 s⁻¹
- B5 — 3.3-fold lower, 8.75e-05 s⁻¹
- B6 — 18-fold lower, 1.65e-05 s⁻¹
- B7 — 2.3-fold lower, 0.000128 s⁻¹
- B8 — 5.2-fold lower, 5.55e-05 s⁻¹

Point of comparison: B8, kon 495000 M⁻¹ s⁻¹. Against it:
- B1 — within 1.5-fold, 456000 M⁻¹ s⁻¹
- B2 — within 1.5-fold, 433000 M⁻¹ s⁻¹
- B3 — within 1.5-fold, 466000 M⁻¹ s⁻¹
- B4 — 1.6-fold lower, 300000 M⁻¹ s⁻¹
- B5 — within 1.5-fold, 417000 M⁻¹ s⁻¹
- B6 — within 1.5-fold, 460000 M⁻¹ s⁻¹
- B7 — within 1.5-fold, 407000 M⁻¹ s⁻¹

Point of comparison: B4, number in parentheses after KD (fold against SYNAGIS = 1) 30 fold. Against it:
- B1 — higher, 43 fold
- B2 — lower, 12 fold
- B3 — lower, 6 fold
- B5 — lower, 19 fold
- B6 — higher, 98 fold
- B7 — lower, 13 fold
- B8 — higher, 35 fold

biological target: RSV F protein (immobilized on the BIAcore sensor chip) (respiratory syncytial virus); assay: BIAcore, immobilized F protein
Sequence (P03420 26-524): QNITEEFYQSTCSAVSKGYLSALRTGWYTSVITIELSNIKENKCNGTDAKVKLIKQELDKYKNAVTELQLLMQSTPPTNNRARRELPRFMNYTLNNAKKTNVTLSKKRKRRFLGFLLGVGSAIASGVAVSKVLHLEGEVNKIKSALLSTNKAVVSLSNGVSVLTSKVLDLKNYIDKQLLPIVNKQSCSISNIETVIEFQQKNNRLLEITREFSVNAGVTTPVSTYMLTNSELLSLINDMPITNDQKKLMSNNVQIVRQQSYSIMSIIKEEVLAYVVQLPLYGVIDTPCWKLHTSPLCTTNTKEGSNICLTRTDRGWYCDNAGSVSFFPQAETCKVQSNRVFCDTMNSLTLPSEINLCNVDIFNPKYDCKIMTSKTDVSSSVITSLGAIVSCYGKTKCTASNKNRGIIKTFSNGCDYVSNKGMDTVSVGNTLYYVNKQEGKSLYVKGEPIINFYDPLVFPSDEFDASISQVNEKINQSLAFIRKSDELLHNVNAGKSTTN

For B9, the koff was 0.000274 s⁻¹ and 0.000266 s⁻¹ and 0.000206 s⁻¹.
In the case of B10, the koff is reported as 0.000192 s⁻¹ and 0.000331 s⁻¹ and 0.000229 s⁻¹.
B11 was tested, and the koff was 0.000245 s⁻¹ and 0.000446 s⁻¹ and 0.000268 s⁻¹.

In the case of B9, the kon is reported as 108000 M⁻¹ s⁻¹ and 96000 M⁻¹ s⁻¹ and 124000 M⁻¹ s⁻¹.
For B11, the kon was 212000 M⁻¹ s⁻¹ and 156000 M⁻¹ s⁻¹ and 186000 M⁻¹ s⁻¹.
